# Paper PMC11410778
# Key:
# [1] = target: cOmpT D267S (Escherichia coli (avian pathogenic strain E058)) (UniProt P09169)
# [2] = target: cOmpT D267S/S276T (Escherichia coli (avian pathogenic strain E058)) (UniProt P09169)
# [3] = target: cOmpT S276T (Escherichia coli (avian pathogenic strain E058)) (UniProt P09169)
# [4] = target: chromosome-encoded OmpT (cOmpT) of avian pathogenic Escherichia coli E058 (Escherichia coli (avian pathogenic strain E058)) (UniProt P09169)
# [5] = target: pOmpT S267D (Escherichia coli (avian pathogenic strain E058))
# [6] = target: pOmpT S267D/T276S (Escherichia coli (avian pathogenic strain E058))
# [7] = target: pOmpT T276S (Escherichia coli (avian pathogenic strain E058))
# [8] = target: plasmid-encoded OmpT (pOmpT or ArlC) of avian pathogenic Escherichia coli E058 (Escherichia coli (avian pathogenic strain E058))
substance,measurement,setting,value
synthetic FRET substrate 2Abz-SLGRKIQI-K(Dnp)-NH2 (peptide),"Km of cleavage of the FRET substrate by whole E. coli BL21 expressing the protease (0–240 μM substrate, Michaelis–Menten fit)",[1],0.0167 µM
same,"Km of cleavage of the FRET substrate by whole E. coli BL21 expressing the protease (0–240 μM substrate, Michaelis–Menten fit)",[2],0.0408 µM
same,"Km of cleavage of the FRET substrate by whole E. coli BL21 expressing the protease (0–240 μM substrate, Michaelis–Menten fit)",[3],0.0475 µM
same,"Km of cleavage of the FRET substrate by whole E. coli BL21 expressing the protease (0–240 μM substrate, Michaelis–Menten fit)",[4],0.0107 µM
same,"Km of cleavage of the FRET substrate by whole E. coli BL21 expressing the protease (0–240 μM substrate, Michaelis–Menten fit)",[5],0.0281 µM
same,"Km of cleavage of the FRET substrate by whole E. coli BL21 expressing the protease (0–240 μM substrate, Michaelis–Menten fit)",[6],0.0215 µM
same,"Km of cleavage of the FRET substrate by whole E. coli BL21 expressing the protease (0–240 μM substrate, Michaelis–Menten fit)",[7],0.0157 µM
same,"Km of cleavage of the FRET substrate by whole E. coli BL21 expressing the protease (0–240 μM substrate, Michaelis–Menten fit)",[8],0.0667 µM
